Data: patent publication US20210100839A1 (CELLECTIS, published 2021)

B1: anti-CD22 CAR9 (prot CAR9) (other)
chain: QVQLQQSGPGLVQPSQTLSLTCVISGDSVSSNSATWNWIRQSPSRGLEWLGRTYYRSKWYNDYAVSVKSRITINPDTSKNQFSLQLNSVTPEDTAVYYCARDGDGGSYYDYYYYGMDVWGQGTTVTVSGGGGSGGGGSGGGGSDIQLTQSPSSLSTSVGDRVTITCRASQSISTYLNWYQQKPGKAPKLLIYAASNLQSGVPSRFSGSGSGTDFTLTISSLQPEDFATYFCQQSYTTPITFGQGTRLEIKTTTPAPRPPTPAPTIASQPLSLRPEACRPAAGGAVHTRGLDFACDIYIWAPLAGTCGVLLLSLVITLYCKRGRKKLLYIFKQPFMRPVQTTQEEDGCSCRFPEEEEGGCELRVKFSRSADAPAYQQGQNQLYNELNLGRREEYDVLDKRRGRDPEMGGKPRRKNPQEGLYNELQKDKMAEAYSEIGMKGERRRGKGHDGLYQGLSTATKDTYDALHMQALPPR
notes: Original clone number 9; Single-chain CAR on T cells; range counted on the printed copy; also called CAR9 7
B2: anti-CD22 CAR15 (prot CAR15) (other)
chain: QVQLVQSGAEVKKPGASVKVSCKASGYTFTSYYMHWVRQAPGQGLEWMGIINPSGGSTSYAQKFQGRVTMTRDTSTSTVYMELSSLRSEDTAVYYCAREDSGSGAFDIWGQGTLVTVSGGGGSGGGGSGGGGSEIVLTQSPLSLPVTPGEPASISCRSSRSLLSYHGYNYLDWYLQKPGQSPQLLIFVGSNRAPGVPDRFSGSGSGTDFTLNISRVEAEDVGVYYCMQSLQTPRTFGQGTKVEIKTTTPAPRPPTPAPTIASQPLSLRPEACRPAAGGAVHTRGLDFACDIYIWAPLAGTCGVLLLSLVITLYCKRGRKKLLYIFKQPFMRPVQTTQEEDGCSCRFPEEEEGGCELRVKFSRSADAPAYQQGQNQLYNELNLGRREEYDVLDKRRGRDPEMGGKPRRKNPQEGLYNELQKDKMAEAYSEIGMKGERRRGKGHDGLYQGLSTATKDTYDALHMQALPPR
notes: Original clone number 15; Single-chain CAR on T cells; range counted on the printed copy; also called CAR15 10
B3: anti-CD22 CAR2 (prot CAR2) (other)
chain: QVQLQQSGPGLVKPSQTLSLTCAISGDSVSSNSAAWNWIRQSPSRGLEWLGRTYYRSKWYNDYAVSVKSRITINPDTSKNQFSLQLNSVTPEDTAVYYCARASMTGGYSYGDAFDIWGQGTLVTVSGGGGSGGGGSGGGGSAIRMTQSPSSLSASVGDRVTITCRASQSISSYLNWYQQKPGKAPKLLIYAASSLQSGVPSRFSGSGSGTDFSLTISSLQPEDSATYYCQQTYSTPLTFGQGTKVEIKTTTPAPRPPTPAPTIASQPLSLRPEACRPAAGGAVHTRGLDFACDIYIWAPLAGTCGVLLLSLVITLYCKRGRKKLLYIFKQPFMRPVQTTQEEDGCSCRFPEEEEGGCELRVKFSRSADAPAYQQGQNQLYNELNLGRREEYDVLDKRRGRDPEMGGKPRRKNPQEGLYNELQKDKMAEAYSEIGMKGERRRGKGHDGLYQGLSTATKDTYDALHMQALPPR
notes: Single-chain CAR on T cells; range counted on the printed copy
B4: anti-CD22 CAR8 (prot CAR8) (other)
chain: QVQLQQSGPGLVKPSQTLSLTCAISGDSVSSSSAAWNWIRQSPSRGLEWLGRTYYRSAWYNDYAVSVKSRITINPDTSKNQFSLQLNSVTPEDTAVYYCARESVLLDGMDVWGRGTTVTVSGGGGSGGGGSGGGGSAIRMTQSPSTLSASVGDRVTITCRASQSISTYLNWYQQKAGKAPRLLIHDASSLQSGVPSRFSGSGSGTDFTLTISSLQPEDFATYYCQQSYSTPLTFGGGTKVEIKTTTPAPRPPTPAPTIASQPLSLRPEACRPAAGGAVHTRGLDFACDIYIWAPLAGTCGVLLLSLVITLYCKRGRKKLLYIFKQPFMRPVQTTQEEDGCSCRFPEEEEGGCELRVKFSRSADAPAYQQGQNQLYNELNLGRREEYDVLDKRRGRDPEMGGKPRRKNPQEGLYNELQKDKMAEAYSEIGMKGERRRGKGHDGLYQGLSTATKDTYDALHMQALPPR
notes: Original clone number 8; Single-chain CAR on T cells; range counted on the printed copy; also called CAR8 6
B5: anti-CD22 CAR7 (prot CAR7) (other)
chain: QVQLQQSGPGLVEPSQTLSLTCAISGDSVSSDSVAWNWIRQSPSRGLEWLGRTYYRSTWYNDYAGSVKSRITINPDTSKNQFSLQLNSVTPEDTAVYYCARDRNGMDVWGQGTMVTVSGGGGSGGGGSGGGGSDIVMTQSPSSLSASVGDRVTITCRASQSISSYLNWYQQKPGKAPKLLIYDASNLETGVPSRFSGSGSGTDFTFTITSLQPEDFATYYCQQSYTTPLTFGGGTKVEIKTTTPAPRPPTPAPTIASQPLSLRPEACRPAAGGAVHTRGLDFACDIYIWAPLAGTCGVLLLSLVITLYCKRGRKKLLYIFKQPFMRPVQTTQEEDGCSCRFPEEEEGGCELRVKFSRSADAPAYQQGQNQLYNELNLGRREEYDVLDKRRGRDPEMGGKPRRKNPQEGLYNELQKDKMAEAYSEIGMKGERRRGKGHDGLYQGLSTATKDTYDALHMQALPPR
notes: Single-chain CAR on T cells; range counted on the printed copy; also called CAR7 5
B6: anti-CD22 CAR3 (prot CAR3) (other)
chain: QVQLQQSGPGLVEPSQTLSLTCAISGDSVSSDSVAWNWIRQSPSRGLEWLGRTYYRSTWYNDYAGSVKSRITINPDTSKNQFSLQLTSVTPEDTAVYYCTRSRHNTFRGMDVWGQGTTVTVSGGGGSGGGGSGGGGSDIVMTQSPSSLSASVGDRVTITCRASQTISSYLNWYQQKPGKAPKLLIYDASSLQSGVPSRFSGSGSGTDFTLTINSLQPEDFATYYCQQSYTTPITFGQGTRLEIKTTTPAPRPPTPAPTIASQPLSLRPEACRPAAGGAVHTRGLDFACDIYIWAPLAGTCGVLLLSLVITLYCKRGRKKLLYIFKQPFMRPVQTTQEEDGCSCRFPEEEEGGCELRVKFSRSADAPAYQQGQNQLYNELNLGRREEYDVLDKRRGRDPEMGGKPRRKNPQEGLYNELQKDKMAEAYSEIGMKGERRRGKGHDGLYQGLSTATKDTYDALHMQALPPR
notes: as for B3

Each binder was assayed against T1, recombinant CD22 protein corresponding to the whole extracellular domain of CD22 (human; mouse, UniProt P20273 20-687) (assay: flow cytometry, CAR T cells stained with recombinant full length CD22 protein).
T1 construct: range 20-687; also called full length recombinant CD22 protein; CD22 recombinant protein (full length)
Method: CAR detection at the surface of T-cells is performed using a recombinant protein consisting on the extracellular domain of the human CD22 protein (whole protein, distal portion of CD22 or proximal portion of CD22) fused together with a murine IgG1 Fc fragment. Binding of this protein to the CAR molecule is detected with a PE-conjugated secondary antibody (Jackson Immunoresearch) targeting the mouse Fc portion of the protein, and analyzed by flow cytometry.
Then, CAR positive cells frequency (% of CAR-expressing cells over the total number of cells) was assessed by flow cytometry using a recombinant CD22 protein corresponding to the membrane proximal domain of CD22 or a recombinant CD22 protein corresponding to the whole extracellular domain of CD22 (FIG. 5).

Binder	binding result
B1	binds
B2	binds
B3	binds
B4	binds
B5	binds
B6	binds
